The target in the experiment is CFP. The experiment is described as follows: FRET or BRET; acceptor photobleaching FRET in live C. crescentus cells on 1 % agarose pads; YFP (acceptor) bleached for 20 s at 532 nm, increase of CFP (donor) emission recorded; cells grown in M2G, 0.3 % xylose for 1 h; apparent FRET efficiency, above 0.5 % taken as an interaction, above 1 % as a strong one. (In general: Bioluminescence resonance energy transfer reports proximity on the nanometre scale.)

Bounds are passed on as bounds.

As for YFP, the apparent FRET efficiency was less than 0.5%.

These data come from PMC3836487.
